# Laboratory results as given in patent publication US9364516B2, “Treatment of fibrosis-related disorders using fibronectin binding proteins and polypeptides” (priority 2010, dated 2016).
# B1: pUR4: 49-mer peptide derived from the bacterial F1 adhesin, His tagged, SEQ ID NO:1; class I fibronectin polymerization inhibitor (peptide)
# chain: MRGSHHHHHHGSKDQSPLAGESGETEYITEVYGNQQNPVDIDKKLPNETGFSGNMVETEDTKLN
# modifications: His tag; Bacterial adhesin derived peptide pUR4
# Legend:
# [1] = tested on: Rat aortic SMCs; test: qRT-PCR of fibronectin and collagen I in SMC; format: cell-based; conditions: 500 nM, 24 h; PBS control set equal to 1; average of duplicates ± range
# Protocol: mRNA was isolated from RASMs 24 hours after incubation with 500 nM pUR4 or III-11C control peptides using RNAzol as per the manufacturer's instructions (Invitrogen). cDNA was prepared using a Superscript First Strand cDNA kit as per the manufacturer's instructions (Invitrogen). Mouse carotid arteries were harvested and frozen in liquid nitrogen. RNA was isolated using Trizol and purified using a QIAgen RNeasy Micro Kit. RNA integrity was examined with an Agilent 2100 Bioanalyser using RNA6000 NanoAssay (Agilent Technology). Whole transcriptome amplification was performed using Qiagen's QuantiTect Whole Transcriptome Amplification Kit. Quantitative RT-PCR analyses were performed using ABI Prism 7900HT sequence detection system (Applied Biosystems). The qRT-PCR primers for 3 mouse genes were obtained from ABI: GADPH (4352932E), fibronectin (Mm01256744_m1), and collagen Ia1 (Mm00801666_g1). TaqMan probe chemistry was used according to the manufacturer's instructions. qRT-PCR reactions were run in triplicate for each sample. The data was normalized to the levels of GAPDH in each sample, and the results were averaged.
# [2] = tested on: left carotid artery; test: Detection of Texas-Red conjugated peptides in vessel wall; format: in vivo, mouse; conditions: Texas-Red conjugate 20 μM in pluronic gel, periadventitial
# Protocol: FIGS. 8A-8E provide visualization of pUR4 in the vessel wall. Texas-Red (TR) conjugated pUR4 (20 μM) was embedded in pluronic gel and periadventitially delivered to the left carotid artery following ligation surgery as described infra. The right carotid artery from the same animal was used as a control. Mice were sacrificed 1, 3, and 7 days after surgery, and the carotid arteries were harvested and flash frozen. Longitudinal sections (20 μm) were immunostained with an anti-TR antibody. Representative images from the right common carotid artery (FIG. 8A), and left common carotid artery of 1 day (FIG. 8B), 3 day (FIG. 8C), and 7 day (FIG. 8D) animals are shown. The percentage area which is TR (+) (FIG. 8E) was assessed in the media of the vessels. Media=M; adventitia=Ad; lumen=L. Bar, 20 μm.
# pUR4 and III-11C were conjugated to Texas-Red, as per the manufacturer's instructions (Molecular Probes/Invitrogen). 20 μM Texas-Red (TR) conjugated proteins were embedded in pluronic gel and applied to the vessel following ligation surgery. […] For quantitatively evaluating the efficacy of peptide delivery to the common carotid artery, 15-18 fields of view in the media from 2-3 mice at each time point were analyzed. The TR (+) areas were quantitated using an automated programmed segmentation procedure in ImagePro. The percentage of TR (+) area to the total medial area was determined.
# [3] = tested on: fibronectin binding to the cell surface; test: Inhibition of fibronectin binding to the cell surface; format: cell-based
# [4] = tested on: mice; test: Dimethylnitrosamine (DMN) induced liver fibrosis; format: in vivo, mouse
# Protocol: Collagen content in the liver of mice was measured by quantitating hydroxyproline levels (FIG. 17A). Treatment groups were DMN treated mice that were post treated with pUR4 or control III-11C peptide, DMN without peptide, and saline treated control mice. Fibronectin content in the liver of mice was assessed by immunohistochemistry of liver sections using a fibronectin antibody (FIG. 17B). Inflammatory cell infiltration into the liver was assessed by quantitating the CD45 positive cells per unit area (FIG. 17C). Sequential model (FIGS. 17A, 17B); Simultaneous model (FIG. 17C). n=3 in each group.
# Liver fibrosis was induced in mice by administration of dimethylnitrosamine (DMN) for 4 weeks as previously described (Yoshida et al., “SOCS1 is a Suppressor of Liver Fibrosis and Hepatitis-Induced Carcinogenesis,” J. Exp. Med. 199:1701-1707 (2004)). This is a well established model of liver fibrosis and some of the key pathological features that develop in DMN induced fibrosis are similar to those seen in humans with liver fibrosis (Wu et al., “Animal Models of Liver Fibrosis,” Scand. J. Gastroenterol. 31:1137-1143 (1996); Jenkins et al., “A Dimethylnitrosamine-Induced Model of Cirrhosis and Portal Hypertension in the Rat,” J. Hepatol. 1:489-499 (1985), which are hereby incorporated by reference in their entirety). pUR4 was either administered for the last 10 days of DMN treatment (simultaneous treatment regimen), or for 14 days following cessation of DMN treatment (sequential treatment regimen). The latter model was performed to determine whether the peptide is effective when administered after fibrosis is established.
# Dimethylnitrosamine (DMN) will be used to induce liver injury and fibrosis in mice (10 mg/kg body weight, 3×/week for 4 weeks) as described in Example 16. The experimental groups will include: 1) DMN alone; 2) DMN+pUR4 peptide; and 3) DMN+control peptide. Non DMN-treated control animals will receive i.p. injections of 0.9% saline plus: 4) pUR4; or 5) the control peptide. Two treatment strategies will be used, as described in Example 16. In the simultaneous treatment strategy, peptides will be administered daily during the last 10 days of DMN treatment. This will allow assessment of pUR4 on preventing fibrosis development. In the sequential treatment strategy, DMN will be injected for 4 weeks. Peptides will then be administered daily for 14 days in the absence of DMN. This will allow assessment of pUR4 on preventing fibrosis progression.
# [5] = target: fibronectin (Homo sapiens, UniProt P02751); conditions: cited from earlier work
# Chain of fibronectin (P02751 32-2477): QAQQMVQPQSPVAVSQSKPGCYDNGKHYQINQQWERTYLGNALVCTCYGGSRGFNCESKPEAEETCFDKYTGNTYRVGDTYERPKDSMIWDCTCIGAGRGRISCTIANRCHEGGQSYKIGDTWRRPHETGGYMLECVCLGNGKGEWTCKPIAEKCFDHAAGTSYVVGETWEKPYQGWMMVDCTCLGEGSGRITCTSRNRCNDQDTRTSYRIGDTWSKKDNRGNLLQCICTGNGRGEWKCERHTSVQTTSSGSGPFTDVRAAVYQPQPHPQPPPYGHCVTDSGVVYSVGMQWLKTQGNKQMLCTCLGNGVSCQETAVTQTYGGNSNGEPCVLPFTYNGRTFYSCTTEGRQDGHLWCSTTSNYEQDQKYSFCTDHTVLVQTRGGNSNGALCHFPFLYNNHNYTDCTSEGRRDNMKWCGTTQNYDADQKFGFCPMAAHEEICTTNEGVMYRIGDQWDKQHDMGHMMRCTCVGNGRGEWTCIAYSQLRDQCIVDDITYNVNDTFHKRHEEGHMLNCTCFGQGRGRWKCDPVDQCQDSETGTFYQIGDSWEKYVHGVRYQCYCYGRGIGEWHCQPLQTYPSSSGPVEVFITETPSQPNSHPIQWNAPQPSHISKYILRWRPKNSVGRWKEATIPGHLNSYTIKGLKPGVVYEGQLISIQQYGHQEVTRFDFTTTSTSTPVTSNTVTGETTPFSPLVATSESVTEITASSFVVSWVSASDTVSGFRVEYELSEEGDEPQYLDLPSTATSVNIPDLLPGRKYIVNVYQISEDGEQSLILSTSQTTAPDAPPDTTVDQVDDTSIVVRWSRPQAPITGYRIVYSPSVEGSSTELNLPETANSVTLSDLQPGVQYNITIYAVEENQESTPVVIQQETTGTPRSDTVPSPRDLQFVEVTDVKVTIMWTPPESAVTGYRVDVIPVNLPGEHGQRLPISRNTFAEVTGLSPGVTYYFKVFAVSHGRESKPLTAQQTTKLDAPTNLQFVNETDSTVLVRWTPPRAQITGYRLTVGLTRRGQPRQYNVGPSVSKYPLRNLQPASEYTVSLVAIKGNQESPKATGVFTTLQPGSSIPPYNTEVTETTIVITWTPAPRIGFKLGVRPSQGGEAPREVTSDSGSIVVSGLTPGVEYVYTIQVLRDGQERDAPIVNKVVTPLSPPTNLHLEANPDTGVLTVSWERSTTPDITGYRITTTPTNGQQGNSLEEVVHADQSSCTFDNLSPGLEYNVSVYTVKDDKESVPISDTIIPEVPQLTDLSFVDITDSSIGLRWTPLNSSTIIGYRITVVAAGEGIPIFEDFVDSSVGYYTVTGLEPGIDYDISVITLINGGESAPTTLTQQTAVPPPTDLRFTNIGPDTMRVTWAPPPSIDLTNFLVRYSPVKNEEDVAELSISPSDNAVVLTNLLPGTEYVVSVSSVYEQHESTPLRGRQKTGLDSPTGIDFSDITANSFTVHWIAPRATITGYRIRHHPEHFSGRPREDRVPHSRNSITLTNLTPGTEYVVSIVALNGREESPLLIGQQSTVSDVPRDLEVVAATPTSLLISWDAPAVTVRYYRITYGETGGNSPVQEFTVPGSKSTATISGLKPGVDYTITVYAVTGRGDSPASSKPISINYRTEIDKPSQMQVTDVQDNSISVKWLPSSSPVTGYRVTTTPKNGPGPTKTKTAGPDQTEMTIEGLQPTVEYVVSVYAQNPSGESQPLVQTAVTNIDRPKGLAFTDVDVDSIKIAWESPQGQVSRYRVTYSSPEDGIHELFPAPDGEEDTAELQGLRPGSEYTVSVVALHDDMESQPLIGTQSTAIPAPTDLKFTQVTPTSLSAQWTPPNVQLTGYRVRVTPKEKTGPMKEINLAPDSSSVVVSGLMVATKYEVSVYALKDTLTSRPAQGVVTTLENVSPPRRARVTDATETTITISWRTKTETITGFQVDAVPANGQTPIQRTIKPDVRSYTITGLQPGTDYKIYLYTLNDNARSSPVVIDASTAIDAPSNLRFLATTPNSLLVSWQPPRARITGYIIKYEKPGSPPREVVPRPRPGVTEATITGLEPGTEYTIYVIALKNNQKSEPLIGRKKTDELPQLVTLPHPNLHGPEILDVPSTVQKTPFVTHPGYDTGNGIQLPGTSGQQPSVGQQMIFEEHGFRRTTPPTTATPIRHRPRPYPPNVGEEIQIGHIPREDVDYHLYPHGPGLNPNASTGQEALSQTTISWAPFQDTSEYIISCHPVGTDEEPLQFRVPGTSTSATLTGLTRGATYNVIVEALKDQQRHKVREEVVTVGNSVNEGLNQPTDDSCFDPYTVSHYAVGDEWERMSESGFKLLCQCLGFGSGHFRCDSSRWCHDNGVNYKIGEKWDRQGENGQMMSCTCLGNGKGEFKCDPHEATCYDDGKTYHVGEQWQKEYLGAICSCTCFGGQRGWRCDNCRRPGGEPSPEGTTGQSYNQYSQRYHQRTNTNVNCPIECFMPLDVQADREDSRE
# [6] = tested on: cell spreading or adhesion to collagen or fibronectin; conditions: cited from earlier work
# [7] = animals treated in the absence of injury for up to 2 weeks
# [8] = sequential treatment: 14 days following cessation of DMN, 20 mg/kg/d
molecule,measurement,setting,value
B1,"Col Ia1 mRNA, relative level",[1],1.42 ± 0.06
same,"Fibronectin mRNA, relative level",[1],1.43 ± 0.02
same,peptide detected in the vessel wall (media and adventitia),[2]; 1 to 3 days after application,readily detected
same,levels of the peptide in the vessel wall by day 7,[2]; day 7,significantly reduced
same,EC50,[3],10 nM
same,adverse effects,[4]; [7],do not show any adverse effects
same,decrease in the normal levels of ECM fibronectin or collagen I,[4]; [7],do not show
same,inflammation in the liver,[4]; sequential treatment model,trend towards reduced
same,collagen I content in the liver (hydroxyproline),[4]; [8],reduced
same,fibronectin content in the liver,[4]; [8],reduced
same,infiltration of immune cells (CD45) into the liver,[4]; simultaneous treatment regimen,significantly reduced
same,binding to fibronectin,[5],binds
same,inhibition of cell spreading or adhesion to collagen or fibronectin,[6],does not inhibit
